Experimental findings from patent US20240376218A1 are described below.

A value given as a limit tells only on which side of the number the result lay.

For experiment [1], the target named is FcRn immobilized on FcRn column (Roche, Order No. 8128057001). The experiment in a line: FcRn affinity chromatography, linear pH gradient.
For experiment [2], the target named is human CCR8 (human) (UniProt P51685). Description: cell-based or functional assay.
For experiment [3], the target named is human CCR8 tagged with ProLink (human). The experiment in a line: cell-based or functional assay.
Experiment [4] concerns the target human CCR4 (P51679_CCR4_HUMAN) (human) (UniProt P51679). Description: cell-based or functional assay.
The target of experiment [5] is human CCR4 (human) (UniProt P51679). Description: cell-based or functional assay.
The target in experiment [6] is murine CCR8 (mouse) (UniProt P56484). The experiment in a line: cell-based or functional assay.
Experiment [7] has as its target cynomolgus CCR8 (cynomolgus). Description: FACS, CHO cells expressing cynomolgus CCR8, signal at saturation. A general note: In flow cytometry, cells or beads pass a laser one at a time.

Chain of human CCR4 (human) (P51679 whole entry): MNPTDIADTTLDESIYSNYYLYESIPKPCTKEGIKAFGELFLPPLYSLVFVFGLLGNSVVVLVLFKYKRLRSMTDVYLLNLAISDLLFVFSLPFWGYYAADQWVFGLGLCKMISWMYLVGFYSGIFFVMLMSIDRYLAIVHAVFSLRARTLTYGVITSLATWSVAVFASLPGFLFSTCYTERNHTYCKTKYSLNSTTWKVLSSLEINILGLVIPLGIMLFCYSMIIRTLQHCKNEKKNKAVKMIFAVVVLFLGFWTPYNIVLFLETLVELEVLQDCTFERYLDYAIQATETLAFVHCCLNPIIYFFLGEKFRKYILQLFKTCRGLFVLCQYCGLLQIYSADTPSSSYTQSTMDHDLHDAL
Chain of human CCR4 (P51679_CCR4_HUMAN) (human) (P51679 whole entry): as above
Chain of FcRn immobilized on FcRn column (Roche, Order No. 8128057001) (P55899 24-297, chain 1 of 2): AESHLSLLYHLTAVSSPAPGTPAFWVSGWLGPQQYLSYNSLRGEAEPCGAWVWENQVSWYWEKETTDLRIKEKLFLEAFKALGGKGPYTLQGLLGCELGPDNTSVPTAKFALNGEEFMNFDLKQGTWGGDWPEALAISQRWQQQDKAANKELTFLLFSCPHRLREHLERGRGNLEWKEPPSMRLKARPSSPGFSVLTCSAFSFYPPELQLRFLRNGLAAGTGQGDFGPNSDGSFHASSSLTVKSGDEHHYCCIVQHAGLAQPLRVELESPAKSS
Chain of FcRn immobilized on FcRn column (Roche, Order No. 8128057001) (P61769 21-119, chain 2 of 2, further chain): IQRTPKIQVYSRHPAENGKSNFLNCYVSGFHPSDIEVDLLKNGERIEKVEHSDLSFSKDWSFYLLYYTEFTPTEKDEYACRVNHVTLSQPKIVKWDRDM
Chain of cynomolgus CCR8 (cynomolgus) (O97665 other isoform, or with tags, fused parts or gaps): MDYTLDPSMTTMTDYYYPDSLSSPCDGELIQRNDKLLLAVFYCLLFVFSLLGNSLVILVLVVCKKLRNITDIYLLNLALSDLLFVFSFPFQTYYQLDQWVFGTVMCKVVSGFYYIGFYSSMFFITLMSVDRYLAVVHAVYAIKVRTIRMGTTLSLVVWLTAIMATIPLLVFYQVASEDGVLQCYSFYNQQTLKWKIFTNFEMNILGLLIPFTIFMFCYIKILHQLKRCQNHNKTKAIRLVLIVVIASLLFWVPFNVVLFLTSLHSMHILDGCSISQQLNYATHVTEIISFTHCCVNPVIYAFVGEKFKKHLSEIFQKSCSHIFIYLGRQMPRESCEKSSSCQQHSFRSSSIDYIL
Chain of murine CCR8 (mouse) (P56484 whole entry): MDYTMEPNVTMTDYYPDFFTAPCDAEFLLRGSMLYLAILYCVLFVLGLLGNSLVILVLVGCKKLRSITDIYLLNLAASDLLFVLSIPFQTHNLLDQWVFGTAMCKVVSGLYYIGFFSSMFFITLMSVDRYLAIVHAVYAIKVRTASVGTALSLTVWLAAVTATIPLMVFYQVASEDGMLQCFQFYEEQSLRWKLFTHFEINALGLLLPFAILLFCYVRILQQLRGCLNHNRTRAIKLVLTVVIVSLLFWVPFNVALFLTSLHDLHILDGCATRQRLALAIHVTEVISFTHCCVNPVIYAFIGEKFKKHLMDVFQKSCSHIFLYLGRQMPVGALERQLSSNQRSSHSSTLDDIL
Chain of Ustekinumab (antibody) (HC): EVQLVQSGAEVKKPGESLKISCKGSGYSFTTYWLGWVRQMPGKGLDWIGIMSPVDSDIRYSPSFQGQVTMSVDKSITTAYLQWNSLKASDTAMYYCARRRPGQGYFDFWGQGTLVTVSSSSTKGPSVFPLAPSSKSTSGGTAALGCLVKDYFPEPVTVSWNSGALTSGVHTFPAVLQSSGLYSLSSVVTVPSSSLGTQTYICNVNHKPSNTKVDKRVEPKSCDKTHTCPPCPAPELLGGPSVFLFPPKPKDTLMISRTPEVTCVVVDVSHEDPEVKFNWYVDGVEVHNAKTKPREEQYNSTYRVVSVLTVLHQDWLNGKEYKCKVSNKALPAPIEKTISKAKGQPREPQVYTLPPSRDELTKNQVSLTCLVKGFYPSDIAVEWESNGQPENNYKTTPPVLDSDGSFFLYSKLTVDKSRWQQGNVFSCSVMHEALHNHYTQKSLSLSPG
Chain of Ustekinumab (antibody) (LC): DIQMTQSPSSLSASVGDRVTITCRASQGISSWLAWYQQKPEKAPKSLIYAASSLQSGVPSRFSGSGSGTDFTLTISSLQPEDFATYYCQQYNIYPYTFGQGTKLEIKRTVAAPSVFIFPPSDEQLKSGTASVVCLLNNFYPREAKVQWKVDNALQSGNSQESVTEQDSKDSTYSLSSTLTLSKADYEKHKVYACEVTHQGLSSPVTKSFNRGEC

The substance Briakinumab (antibody) yielded a pH at Elution in experiment [1] of 7.85 pH.
In the case of L263G8 (antibody), in experiment [2], the Ca flux assay IC50 (nM), block of signaling induced by CCL1 at 60 ng/ml; CHO cells expressing human CCR8 came out at 1.26 nM; the Ca flux assay Span ratio (from max to min), block of signaling induced by CCL1 at 60 ng/ml; CHO cells expressing human CCR8 stood at 921; the Internalization [fold isotype], HuT78 cells, BODIPY FL-labelled antibody amounted to 22 fold isotype. This substance came in with an IC50 in nM for inhibition of CCL1 induced β-arrestin signaling (DiscoverX assay), CHO with hCCR8 in experiment [3] of 13.8 nM.
Mogamulizumab (antibody): in experiment [4], the ADCC EC50, activated Tregs + NK92v, Donor 1213 was determined as 0.31 nM; the ADCC EC50, activated Tregs + NK92v, Donor 1730 was 1.09 nM; the ADCC Max Response, activated Tregs + NK92v, Donor 1213 was 58%; the ADCC Max Response, activated Tregs + NK92v, Donor 1730 was 65%. In experiment [5], this substance came in with an ADCC Max Response (%); activated human Tregs (Donor 1100) as target cells, NK92v effector cells of 96%; an ADCC Max Response (%); activated human Tregs (Donor 1100), NK92v effector cells of 74%; an ADCC Max Response (%); activated human Tregs (Donor 1261), NK92v effector cells of 71%; an ADCC hTreg EC50 (pM); activated human Tregs (Donor 1100) as target cells, NK92v effector cells of 35.2 pM. In experiment [5], this substance displayed an ADCC hTreg EC50 (pM); activated human Tregs (Donor 1100), NK92v effector cells of 193 pM and an ADCC hTreg EC50 (pM); activated human Tregs (Donor 1261), NK92v effector cells of 86.4 pM.
Take SA214G2 (antibody): the Internalization [fold isotype], mBW5147.3 cells, BODIPY FL-labelled antibody in experiment [6] was 11 fold isotype.
“CCL1 (human) (from UniProt P22362 24-96) (ligand)”: the EC80 of β-arrestin signaling (DiscoverX assay) in experiment [3] was 0.02 µg/mL.
In turn, Ustekinumab (antibody) showed a pH at Elution in experiment [1] of 7.22 pH.
Substance L263G8 (Biolegend) (antibody) had an MFI in experiment [7] below 1000.
